Measured values published in patent US6518063 (University of Texas, dated 1998).

Key:
[1] = molecular target: T1, histidine-tagged recombinant Osf2/Cbfa1 polypeptide (His-Osf2/Cbfa1) (mouse, UniProt Q08775 80-607); test: EMSA with labeled OSE2 oligonucleotide, with or without Cbfβ
T1 construct: Bacterially expressed, enriched on Ni resin; also called His-tagged Osf2/Cbfa1 polypeptide
Description: (§1) DNA-binding assays were performed with 5 fmol of ^32P-labeled double-stranded OSE2 oligonucleotides, in a buffer containing 20 mM Tris-HCl, pH 8.0, 10 mM NaCl, 3 mM EGTA, 0.05% NP-40, 5 mM DTT, and 2 μg of poly (dI.dC).poly (dI.dC), with equivalent amounts of wild type or mutant proteins. […] Typically, 100 ng of fusion protein bound to glutathione-agarose beads was used for each assay, while the amount of labeled protein in the assay was determined using fluorography.

[2] = molecular target: T2, ΔN19.1.1 deletion mutant of Osf2 (His-tagged) (mouse, UniProt Q08775 99-607); test: as above
T2 construct: counted with Met69 of the cDNA as residue 1
T2 sequence (Q08775 other isoform, or with tags, fused parts or gaps mutant): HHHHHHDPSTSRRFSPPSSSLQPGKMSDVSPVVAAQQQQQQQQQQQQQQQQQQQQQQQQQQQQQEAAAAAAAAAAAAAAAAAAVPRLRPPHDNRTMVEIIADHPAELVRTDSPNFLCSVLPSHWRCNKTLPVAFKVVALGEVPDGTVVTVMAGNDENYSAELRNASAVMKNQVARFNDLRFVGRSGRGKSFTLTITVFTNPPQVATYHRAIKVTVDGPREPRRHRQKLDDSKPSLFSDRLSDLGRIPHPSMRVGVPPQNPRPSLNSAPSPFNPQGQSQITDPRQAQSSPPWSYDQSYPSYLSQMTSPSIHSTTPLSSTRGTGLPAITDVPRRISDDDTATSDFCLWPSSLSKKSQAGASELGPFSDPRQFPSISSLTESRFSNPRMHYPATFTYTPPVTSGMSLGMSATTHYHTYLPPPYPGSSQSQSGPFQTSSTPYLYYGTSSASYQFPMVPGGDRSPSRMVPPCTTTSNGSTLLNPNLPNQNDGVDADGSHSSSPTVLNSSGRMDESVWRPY
Description: as §1

T1 sequence (Q08775 other isoform, or with tags, fused parts or gaps): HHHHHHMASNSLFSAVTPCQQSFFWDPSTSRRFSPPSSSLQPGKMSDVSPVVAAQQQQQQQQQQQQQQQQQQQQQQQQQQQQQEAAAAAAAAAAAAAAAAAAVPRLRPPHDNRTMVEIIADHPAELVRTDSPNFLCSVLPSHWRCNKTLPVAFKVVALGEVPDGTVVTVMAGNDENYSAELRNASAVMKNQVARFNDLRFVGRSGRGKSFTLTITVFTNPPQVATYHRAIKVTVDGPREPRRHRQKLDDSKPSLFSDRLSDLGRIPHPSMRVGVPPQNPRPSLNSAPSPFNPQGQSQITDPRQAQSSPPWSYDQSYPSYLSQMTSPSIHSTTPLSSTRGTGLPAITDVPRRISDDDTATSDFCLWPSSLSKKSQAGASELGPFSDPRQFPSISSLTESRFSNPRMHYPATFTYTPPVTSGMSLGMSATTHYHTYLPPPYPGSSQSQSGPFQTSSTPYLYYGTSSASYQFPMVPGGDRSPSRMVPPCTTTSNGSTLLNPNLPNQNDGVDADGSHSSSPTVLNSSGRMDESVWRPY

B1: histidine-tagged Cbfβ (other)
chain: HHHHHHMPRVVPDQRSKFENEEFFRKLSRECEIKYTGFRDRPHEERQTRFQNACRDGRSEIAFVATGTNLSLQFFPASWQGEQRQTPSREYVDLEREAGKVYLKAPMILNGVCVIWKGWIDLHRLDGMGCLEFDEERAQQEDALAQQAFEEARRRTREFEDRDRSHREEMEARRQQDPSPGSNLGGGDDLKLR
notes: Recombinant Cbfβ added in EMSA; also called Cbf]3
binding result [1]: no binding | binding result [2]: no binding
